Assay [1] deals with T1, anti-CD28 scFv (VH - linker 1 - VL) (biotinylated (captured on neutravidin coated plates)). As to the kind of experiment: clonal phage ELISA on anti-CD28 scFv; wells pre-incubated with soluble CD28 (competitor). (In general: In an ELISA, binding on a coated surface is turned into a signal by an enzyme label.)
Protocol: (§1) Clonal phage were harvested as crude supernatants and screened via standard enzyme linked immunosorbent assays (ELISAs). […] Prior to the addition of clonal phage, wells were incubated with blocking buffer and CD28 soluble protein or blocking buffer alone. Without washing or aspirating, clonal phage supernatants were then added to the wells and incubated for a short time. Wells were then washed followed by detection of bound phage using a horse radish peroxidase conjugated anti-M13 antibody.
Assay [2] has as its target T1, anti-CD28 scFv (VH - linker 1 - VL). The assay is described as follows: clonal phage ELISA; biotinylated anti-CD28 scFv on neutravidin plate, phage detected with anti-M13-HRP.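 Also: crude clonal phage supernatants added to wells preincubated with blocking buffer alone or blocking buffer plus soluble CD28 protein.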
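For CD28 scFv signal in presence of CD28 in this document: crude phage supernatants added to wells preloaded with blocking buffer plus soluble CD28, bound phage read with HRP-linked anti-M13 antibody, comparison wells received blocking buffer only.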
Protocol: as §1

T1 sequence (scFv, as listed by the source): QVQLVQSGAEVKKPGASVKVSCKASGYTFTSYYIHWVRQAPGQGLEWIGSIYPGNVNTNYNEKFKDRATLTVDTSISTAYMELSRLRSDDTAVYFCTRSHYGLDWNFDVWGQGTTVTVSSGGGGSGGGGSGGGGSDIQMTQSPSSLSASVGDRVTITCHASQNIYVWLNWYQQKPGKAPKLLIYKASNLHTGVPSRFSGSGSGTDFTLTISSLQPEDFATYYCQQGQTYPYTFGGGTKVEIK

B1: Phage-235 (peptide)
peptide: MDWCPRYLWHECFS
B1: in assay [1], the “CD28 scFv signal in presence of CD28” value was determined as 0.303. Moreover, in assay [2], the “CD28 scFv signal” value was 2.65.

B2: Phage-244 (peptide)
peptide: MDWCPRYLWHECFD
On to B2, for which the “CD28 scFv signal in presence of CD28” value in assay [1] turned out to be 0.177. Further, the “CD28 scFv signal” value in assay [2] stood at 2.07.

B3: Phage-232 (peptide)
peptide: MDWCARFVGYGCLD
Turning to B3, the “CD28 scFv signal in presence of CD28” value in assay [1] stood at 0.074. Besides, in assay [2], the “CD28 scFv signal” value is 0.065.

B4: Phage-228 (peptide)
peptide: ITWCHVISGLECWN
B4: the “CD28 scFv signal in presence of CD28” value in assay [1] is 0.1. Moreover, the “CD28 scFv signal” value in assay [2] is 0.193.

B5: Phage-238 (peptide)
peptide: MDWCPPYLWSECFA
For the molecule B5, the “CD28 scFv signal in presence of CD28” value in assay [1] turned out to be 0.234. The “CD28 scFv signal” value in assay [2] is 2.6.

B6: Phage-237 (peptide)
peptide: MDWCPSYLWHECFF
As to B6, the “CD28 scFv signal in presence of CD28” value in assay [1] stood at 0.447. Further, the “CD28 scFv signal” value in assay [2] was determined as 2.61.

B7: Phage-239 (peptide)
peptide: MDWCPRYLWHVCFN
Regarding B7, in assay [1], the “CD28 scFv signal in presence of CD28” value turned out to be 0.409. The “CD28 scFv signal” value in assay [2] was found to be 2.6.

B8: Phage-240 (peptide)
peptide: MDWCPRTLWHVCFN
In the case of B8, the “CD28 scFv signal in presence of CD28” value in assay [1] was 0.551. The “CD28 scFv signal” value in assay [2] is 2.6.

B9: Phage-241 (peptide)
peptide: MDWCPRHLWHECYS
As for B9, the “CD28 scFv signal in presence of CD28” value in assay [1] was 0.374. Also, the “CD28 scFv signal” value in assay [2] came out at 2.58.

B10: Phage-231 (peptide)
peptide: VPWCLIISGLDCLN
notes: also called VPWCLIISGLDCIN (so in the source)
On to B10, for which the “CD28 scFv signal in presence of CD28” value in assay [1] was found to be 0.09. The “CD28 scFv signal” value in assay [2] came to 0.107.

B11: Phage-225 (peptide)
peptide: MDWCPRDRWADCFF
With B11, in assay [1], the “CD28 scFv signal in presence of CD28” value turned out to be 0.089. The “CD28 scFv signal” value in assay [2] is 0.392.

B12: Phage-233 (peptide)
peptide: MTWCPTSFWNRCLD
For B12, the “CD28 scFv signal in presence of CD28” value in assay [1] came out at 0.405. Moreover, the “CD28 scFv signal” value in assay [2] turned out to be 0.392.

B13: Phage-229 (peptide)
peptide: VPWCQIISGLECLT
On to B13, for which the “CD28 scFv signal in presence of CD28” value in assay [1] was 0.077. Besides, the “CD28 scFv signal” value in assay [2] was determined as 0.174.

B14: Phage-230 (peptide)
peptide: APWCQIISGLECLT
As to B14, the “CD28 scFv signal in presence of CD28” value in assay [1] is 0.078. Moreover, the “CD28 scFv signal” value in assay [2] was 0.169.

B15: Phage-243 (peptide)
peptide: MDWCPRHLWYECFN
With B15, in assay [1], the “CD28 scFv signal in presence of CD28” value amounted to 0.167. Moreover, the “CD28 scFv signal” value in assay [2] is 2.41.

B16: Phage-242 (peptide)
peptide: MDWCPKHLWTECFA
Turning to B16, in assay [1], the “CD28 scFv signal in presence of CD28” value worked out at 0.145. In addition, the “CD28 scFv signal” value in assay [2] is 2.49.

B17: Phage-245 (peptide)
peptide: MDWCPRNLWHLCFA
For B17, the “CD28 scFv signal in presence of CD28” value in assay [1] was 0.164. The “CD28 scFv signal” value in assay [2] was found to be 1.4.

B18: Phage-234 (peptide)
peptide: MDWCPRALWFECFF
As for B18, in assay [1], the “CD28 scFv signal in presence of CD28” value turned out to be 0.331. The “CD28 scFv signal” value in assay [2] amounted to 2.67.

B19: Phage-226 (peptide)
peptide: MDWCPRDRWIDCFN
On to B19, for which the “CD28 scFv signal in presence of CD28” value in assay [1] came out at 0.131. Besides, the “CD28 scFv signal” value in assay [2] turned out to be 0.339.

B20: Phage-227 (peptide)
peptide: MDWCPRDRWSDCFN
B20: in assay [1], the “CD28 scFv signal in presence of CD28” value came out at 0.074. Moreover, the “CD28 scFv signal” value in assay [2] worked out at 0.102.

The record behind these values is patent publication US20260242478A1 (published 2026).
